As a reminder, the koff is a measure of how fast the partners let go of each other.

We go through 2 substances from PMC10575594.

Experiment [1] has as its target human 40S small ribosomal subunit (human) (UniProt P23396). In words: cryo-EM structure.
Experiment [2] addresses Cy3-labeled human 40S subunit (human) (UniProt P62841). In words: FRET or BRET. A general note: BRET reads energy transfer from a luciferase to a nearby fluorophore.

As to “Bat-Hp-CoV Nsp1 wild type (natural protein)”, the fraction of 40S complexes with density for the Nsp1 linker and NTD in experiment [1] was 15%.
On to “Cy5-labeled Bat-Hp-CoV Nsp1 (natural protein)”, for which, in experiment [2], the fraction of tethered 40S complexes that yielded FRET is 10 to 20%, the koff is less than 0.01 s⁻¹ and the lifetime of the FRET signal is greater than 100 s.
